Laboratory results published in PMC5964521 (Infection and Immunity, 2018).

What was measured:
Assay in all cases: ELISA
Conditions in all cases: both partners purified
[1] = target: pertussis toxin (PTx) holotoxin, native (Bordetella pertussis, strain  …, UniProt P04977;P04978;P04979;P0A3R5;P04981)
[2] = target: pertussis toxin (native PTx holotoxin) (Bordetella pertussis, strain  …, UniProt P04977;P04978;P04979;P0A3R5;P04981)
[3] = target: PTx S1-220 (soluble, truncated recombinant S1 subunit) (Bordetella pertussis, strain  …, UniProt P04977)
[4] = target: T1, PTx B oligomer (Bordetella pertussis, strain  …, UniProt P04978;P04979;P0A3R5;P04981)
[5] = target: T1, PTx B oligomer; remark: listed apart in the source

Row | Binder | EC50 [1] [nM] | EC50 [2] [nM] | binding result [4] | other results
1 | biotinylated antibody E12, recombinant human IgG1 (antibody, V domains shown) VH: EVQLVESGGDLVQPGGSLRLSCEASGFTFSNYAMSWVRQAPGKGLEWVSGTSGSGGSTYYADSVKGRFTLSRDNSKNTLYLQMNSLRAEDTAVYYCAKDREVLRFFLLPYYFDSWGQGTLVTVSS VL: DIVMTQSPGSLSLSPGERATLSCRASQSVSSDYVAWYQQKPGQAPRLLIFDASTRATGIPDRFSGSGSGTDFTLTIGRLEPEDFAVYYCQQYGNSPLTFGGGAKVEIK | 0.56 | – | – | –
2 | antibody E12 (antibody, V domains shown) VH: EVQLVESGGDLVQPGGSLRLSCEASGFTFSNYAMSWVRQAPGKGLEWVSGTSGSGGSTYYADSVKGRFTLSRDNSKNTLYLQMNSLRAEDTAVYYCAKDREVLRFFLLPYYFDSWGQGTLVTVSS VL: DIVMTQSPGSLSLSPGERATLSCRASQSVSSDYVAWYQQKPGQAPRLLIFDASTRATGIPDRFSGSGSGTDFTLTIGRLEPEDFAVYYCQQYGNSPLTFGGGAKVEIK | – | 0.13 | no binding | EC50 [3]: 0.05 nM
3 | biotinylated antibody A12, recombinant human IgG1 (antibody, V domains shown) VH: QVTLKESGGGLVKPGGSLRLSCAASGFTFTDYYMTWIRQAPGKGLEWVSCVGSSGTYTNYAQNVQGRFTISRDNAKNSLYLQMNSLRTEDTAVYYCARVTGSGNFYGSYHYYYMDVWGKGTMVTVSS VL: EVVLTQSPATLSLSPGKKATLSCRASQSVSNYLAWYQQKPGQSPRLLIFDASKRAAGIPARFSGSGSGTDFTLTISSLEPEDFAVYYCQQRTNWLTFGGGTKVEIK | 0.24 | – | – | –
4 | antibody A12 (antibody, V domains shown) VH: QVTLKESGGGLVKPGGSLRLSCAASGFTFTDYYMTWIRQAPGKGLEWVSCVGSSGTYTNYAQNVQGRFTISRDNAKNSLYLQMNSLRTEDTAVYYCARVTGSGNFYGSYHYYYMDVWGKGTMVTVSS VL: EVVLTQSPATLSLSPGKKATLSCRASQSVSNYLAWYQQKPGQSPRLLIFDASKRAAGIPARFSGSGSGTDFTLTISSLEPEDFAVYYCQQRTNWLTFGGGTKVEIK | – | 0.1 | no binding | –
5 | biotinylated antibody D8, recombinant human IgG1 (antibody, V domains shown) VH: QITLRESGAEVTKPGSSVKVSCKASGGTFGSYGIRWVRQAPGQGLEWMGGIIPMFGTANYAQRFQGRVTITADKSTSTAYMELSSLKSEDTAVYYCARENSIVGANWFDPWGQGTLVTVSS VL: EIVMTQSPSSLSASVGDRVTFTCRASQSISTYLNWYQQKPGKAPTLLIYAASTLRSGVPSRFSGSGSGTDFTLTISSLQPVDFATYFCQQSYSSPYTFGQGTTLEIK | 0.76 | – | – | –
6 | antibody D8 (antibody, V domains shown) VH: QITLRESGAEVTKPGSSVKVSCKASGGTFGSYGIRWVRQAPGQGLEWMGGIIPMFGTANYAQRFQGRVTITADKSTSTAYMELSSLKSEDTAVYYCARENSIVGANWFDPWGQGTLVTVSS VL: EIVMTQSPSSLSASVGDRVTFTCRASQSISTYLNWYQQKPGKAPTLLIYAASTLRSGVPSRFSGSGSGTDFTLTISSLQPVDFATYFCQQSYSSPYTFGQGTTLEIK | – | 0.14 | – | EC50 [5]: 0.78 nM
7 | biotinylated antibody A8, recombinant human IgG1 (antibody, V domains shown) VH: QVQLVESGAEVKKPGASVKVSCKTSGYTFSSYGITWVRQAPGQGLEWMGWISAYNGDTNYADSVKGRVTMTTDTSTSTAYMELRSLRFDDTAVYYCARDTSFAPSGYGFDISGQGTTVTVSS VL: DIQLTQSPSSLSASVGDRVTITCRASQGIRHELAWYQQKPGKAPQRLIYAASSLQSGVPSRFSGSGSGTDFTLTINSLQPEDSATYYCLQVNSYPRTFGQGTRVDIK | 0.65 | – | – | –
8 | antibody A8 (antibody, V domains shown) VH: QVQLVESGAEVKKPGASVKVSCKTSGYTFSSYGITWVRQAPGQGLEWMGWISAYNGDTNYADSVKGRVTMTTDTSTSTAYMELRSLRFDDTAVYYCARDTSFAPSGYGFDISGQGTTVTVSS VL: DIQLTQSPSSLSASVGDRVTITCRASQGIRHELAWYQQKPGKAPQRLIYAASSLQSGVPSRFSGSGSGTDFTLTINSLQPEDSATYYCLQVNSYPRTFGQGTRVDIK | – | 0.15 | no binding | EC50 [3]: 0.02 nM
9 | biotinylated antibody H5, recombinant human IgG1 (antibody, V domains shown) VH: QVQLVESGPGLVKPSETLSLTCTVSGASVSSGTYYWSWIRQPPGKGLEWIGYSYYTGSSDSNASLKSRVTLSIDTSRNLLSLKLTSVTAADTAVYYCARDRRKVRGVWAGYSGMDVWGPGTTVTVSS VL: EIVMTQSPSSLSASVGDRVTITCQASQEITNYLNWYQQKPGKAPKLLIYDASHLETGVPSRFSGSGSGTDFSFTISSLQPEDIATYYCQQYDDFPWGGVTFGGGTKVEIK | 0.06 | – | – | –
10 | antibody H5 (antibody, V domains shown) VH: QVQLVESGPGLVKPSETLSLTCTVSGASVSSGTYYWSWIRQPPGKGLEWIGYSYYTGSSDSNASLKSRVTLSIDTSRNLLSLKLTSVTAADTAVYYCARDRRKVRGVWAGYSGMDVWGPGTTVTVSS VL: EIVMTQSPSSLSASVGDRVTITCQASQEITNYLNWYQQKPGKAPKLLIYDASHLETGVPSRFSGSGSGTDFSFTISSLQPEDIATYYCQQYDDFPWGGVTFGGGTKVEIK | – | 0.02 | – | EC50 [5]: 0.11 nM
